Columns and labels:
[1] = molecular target: H-2Kb class I H chain, beta2m-free, in R1E-Kb cells (mouse); assay: cross-linking
[2] = molecular target: H-2Db class I H chain, beta2m-free, in R1E-Db cells (mouse); assay: cross-linking

Chain of H-2Kb class I H chain, beta2m-free, in R1E-Kb cells (mouse) (P01901 22-369): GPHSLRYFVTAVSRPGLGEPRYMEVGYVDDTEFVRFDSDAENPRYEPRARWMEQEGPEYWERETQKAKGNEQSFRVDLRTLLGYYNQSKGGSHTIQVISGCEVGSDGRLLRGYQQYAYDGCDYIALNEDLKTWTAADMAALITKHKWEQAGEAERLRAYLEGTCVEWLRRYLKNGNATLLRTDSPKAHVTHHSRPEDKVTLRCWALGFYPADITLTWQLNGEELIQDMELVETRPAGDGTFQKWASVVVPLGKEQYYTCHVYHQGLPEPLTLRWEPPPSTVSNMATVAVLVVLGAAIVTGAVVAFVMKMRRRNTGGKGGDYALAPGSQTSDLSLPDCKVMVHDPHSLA

percent of H chains crosslinked to p88 [1]: 50%
percent of H chains crosslinked to p88 [2]: 25%
B1: p88 (88-kD protein), murine (natural protein)
chain: HDGHDDDAIDIEDDLDDVIEEVEDSKSKSDASTPPSPKVTYKAPVPTGEVYFADSFDRGSLSGWILSKAKKDDTDDEIAKYDGKWEVDEMKETKLPGDKGLVLMSRAKHHAISAKLNKPFLFDTKPLIVQYEVNFQNGIECGGAYVKLLSKTAELSLDQFHDKTPYTIMFGPDKCGEDYKLHFIFRHKNPKTGVYEEKHAKRPDADLKTYFTDKKTHLYTLILNPDNSFEILVDQSVVNSGNLLNDMTPPVNPSREIEDPEDRKPEDWDERPKIADPDAVKPDDWDEDAPSKIPDEEATKPEGWLDDEPEYIPDPDAEKPEDWDEDMDGEWEAPQIANPKCESAPGCGVWQRPMIDNPNYKGKWKPPMIDNPNYQGIWKPRKIPNPDFFEDLEPFKMTPFSAIGLELWSMTSDIFFDNFIISGDRRVVDDWANDGWGLKKAADGAAEPGVVLQMLEAAEERPWLWVVYILTVALPVFLVILFCCSGKKQSNAMEYKKTDAPQPDVKDEEGKEEEKNKRDEEEEEEKLEEKQKSDAEEDGVTGSQDEEDSKPKAEEDEILNRSPRNRKPRRE

From paper PMC2119236
